Measurements reported in publication PMC7316778 (Nature Communications, 2020).
Values joined by “and” are separate entries in the source; they are usually repeats but may differ in a detail not shown here. Equal entries are not always repeated.

Assays:
[1] = test system: FES^S700C HL-60 neutrophils; experiment: Phagocytosis assay with GFP-expressing E. coli; type: cell-based, human; conditions: for GFP-positive cells (%): Sup. Fig. 15a; for Mean GFP intensity (RFU): Sup. Fig. 15b
Method: HL-60 cells were differentiated to neutrophils as described above. Cells were counted and centrifuged (200g, 5 min), followed by resuspension in growth medium without antibiotics. Cells were incubated with vehicle or inhibitor (from 1000x concentrated stocks in DMSO) for 1 h at 37 °C prior to infection (1×10^6 cells in 900 µL in 12-well plate). Meanwhile, E. coli B834(DE3) constitutively expressing GFP^A206K were grown in LB medium to an OD600 of 0.4–1.0, after which bacteria were centrifuged (2000g, 5 min), washed and resuspended in PBS to appropriate density. Neutrophils were infected by addition of bacteria at multiplicity of infection (MOI) of 30 unless stated otherwise. Cells were then incubated for 1 h at 37 °C unless stated otherwise, after which cells were resuspended and transferred to Eppendorf tubes, washed in FACS buffer (1 mL, 500g, 3 min) and fixed in 1% PFA in PBS (15 min, 4 °C, in the dark). Samples were further processed as described above.
Events (generally 20,000 per condition) were gated by forward and side scatter (cells), side scatter area (singlets) and the percentage of GFP-positive cells and GFP mean fluorescence intensity (MFI) were determined based on background fluorescence for non-infected cells. The GREEN-B channel (525/30 filter) was used to detect GFP.

CSK = CSK (Homo sapiens, UniProt P41240); experiment: PamChip microarray peptide phosphorylation; conditions: peptide substrate phosphorylated by CSK
Chain of CSK (P41240 whole entry): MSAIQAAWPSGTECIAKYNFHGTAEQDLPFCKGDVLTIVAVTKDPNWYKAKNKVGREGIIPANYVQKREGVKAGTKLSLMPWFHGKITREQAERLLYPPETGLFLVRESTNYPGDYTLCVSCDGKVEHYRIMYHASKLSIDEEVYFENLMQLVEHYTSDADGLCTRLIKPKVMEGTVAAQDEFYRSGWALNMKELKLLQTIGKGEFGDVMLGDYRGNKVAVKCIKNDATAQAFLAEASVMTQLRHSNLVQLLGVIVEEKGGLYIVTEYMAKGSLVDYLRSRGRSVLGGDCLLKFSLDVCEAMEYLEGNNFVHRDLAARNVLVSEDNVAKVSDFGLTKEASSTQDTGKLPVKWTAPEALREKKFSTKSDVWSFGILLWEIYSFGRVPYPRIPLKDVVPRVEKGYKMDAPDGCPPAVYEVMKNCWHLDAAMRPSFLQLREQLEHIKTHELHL

FGR = FGR (Homo sapiens, UniProt P09769); experiment: PamChip microarray peptide phosphorylation; conditions: peptide substrate phosphorylated by FGR
ABL1 = ABL1 (Homo sapiens, UniProt P00519); experiment: PamChip microarray peptide phosphorylation; conditions: peptide substrate phosphorylated by ABL1
Chain of ABL1 (P00519 whole entry): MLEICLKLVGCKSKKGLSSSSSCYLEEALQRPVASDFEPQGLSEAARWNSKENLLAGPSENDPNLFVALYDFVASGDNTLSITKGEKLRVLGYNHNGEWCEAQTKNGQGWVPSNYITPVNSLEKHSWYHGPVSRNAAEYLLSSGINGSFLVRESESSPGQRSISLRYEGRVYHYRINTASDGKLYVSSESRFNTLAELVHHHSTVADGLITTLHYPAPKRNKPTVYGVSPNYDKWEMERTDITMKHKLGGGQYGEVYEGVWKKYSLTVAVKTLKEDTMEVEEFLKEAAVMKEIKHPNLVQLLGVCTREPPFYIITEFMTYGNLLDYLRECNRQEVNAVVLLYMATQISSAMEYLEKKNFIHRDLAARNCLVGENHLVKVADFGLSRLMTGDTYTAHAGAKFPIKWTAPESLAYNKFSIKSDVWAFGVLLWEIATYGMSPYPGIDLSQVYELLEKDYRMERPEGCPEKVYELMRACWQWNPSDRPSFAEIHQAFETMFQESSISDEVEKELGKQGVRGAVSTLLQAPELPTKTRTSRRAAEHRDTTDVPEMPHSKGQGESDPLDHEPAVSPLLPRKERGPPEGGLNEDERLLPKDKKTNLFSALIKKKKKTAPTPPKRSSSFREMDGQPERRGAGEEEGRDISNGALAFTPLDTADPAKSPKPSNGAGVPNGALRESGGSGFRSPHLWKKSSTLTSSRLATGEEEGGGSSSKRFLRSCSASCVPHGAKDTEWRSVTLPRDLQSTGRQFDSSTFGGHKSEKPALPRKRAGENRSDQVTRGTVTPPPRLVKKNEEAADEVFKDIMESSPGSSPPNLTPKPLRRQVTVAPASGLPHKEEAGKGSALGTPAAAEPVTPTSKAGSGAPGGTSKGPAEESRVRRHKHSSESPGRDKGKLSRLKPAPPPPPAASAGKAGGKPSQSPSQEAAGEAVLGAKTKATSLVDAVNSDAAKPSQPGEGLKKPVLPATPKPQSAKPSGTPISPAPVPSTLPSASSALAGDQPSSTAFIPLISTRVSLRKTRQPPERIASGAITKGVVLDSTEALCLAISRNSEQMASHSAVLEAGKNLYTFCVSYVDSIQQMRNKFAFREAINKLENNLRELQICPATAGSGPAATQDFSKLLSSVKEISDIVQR

FES^WT = target: T1, FES^WT (Homo sapiens, UniProt P07332); experiment: PamChip microarray peptide phosphorylation; type: biochemical; conditions: peptide substrate phosphorylated by FES - WT
T1 construct: human FES cDNA encoding residues 448–822 or human FER cDNA encoding residues 448–820 was amplified by PCR; made in house; host or cells: E. coli BL21(DE3), co-expressing YopH phosphatase
T1 sequence (P07332 448-822): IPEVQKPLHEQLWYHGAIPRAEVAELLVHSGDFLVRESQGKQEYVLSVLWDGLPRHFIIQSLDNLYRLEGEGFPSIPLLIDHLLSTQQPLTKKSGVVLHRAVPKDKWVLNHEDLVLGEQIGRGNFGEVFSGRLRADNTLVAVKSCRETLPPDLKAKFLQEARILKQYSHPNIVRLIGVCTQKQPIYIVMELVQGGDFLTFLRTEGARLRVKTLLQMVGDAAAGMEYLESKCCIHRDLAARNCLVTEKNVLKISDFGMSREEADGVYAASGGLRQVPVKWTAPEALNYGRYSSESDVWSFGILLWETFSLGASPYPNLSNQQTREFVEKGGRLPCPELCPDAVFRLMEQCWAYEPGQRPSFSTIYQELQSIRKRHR

LYN = LYN (Homo sapiens, UniProt P07948); experiment: PamChip microarray peptide phosphorylation; conditions: peptide substrate phosphorylated by LYN
Chain of LYN (P07948 whole entry): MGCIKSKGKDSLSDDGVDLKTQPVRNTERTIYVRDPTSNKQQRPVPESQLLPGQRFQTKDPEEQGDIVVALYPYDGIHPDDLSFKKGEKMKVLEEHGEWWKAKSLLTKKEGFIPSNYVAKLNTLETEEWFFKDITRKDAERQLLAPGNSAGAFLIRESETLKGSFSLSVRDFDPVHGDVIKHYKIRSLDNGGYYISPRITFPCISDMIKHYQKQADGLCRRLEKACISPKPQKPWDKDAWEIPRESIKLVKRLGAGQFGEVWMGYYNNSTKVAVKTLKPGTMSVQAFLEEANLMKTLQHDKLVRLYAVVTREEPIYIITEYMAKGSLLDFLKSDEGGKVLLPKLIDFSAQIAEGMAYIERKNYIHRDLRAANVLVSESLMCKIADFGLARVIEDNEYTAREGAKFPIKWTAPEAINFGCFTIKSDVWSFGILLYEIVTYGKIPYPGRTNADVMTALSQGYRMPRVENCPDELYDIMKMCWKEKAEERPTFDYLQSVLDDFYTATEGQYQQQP

SYK = SYK (Homo sapiens, UniProt P43405); experiment: PamChip microarray peptide phosphorylation; conditions: peptide substrate phosphorylated by SYK

Compound | Relative phosphorylation (% of highest signal) (CSK) | Relative phosphorylation (% of highest signal) (FGR) | Relative phosphorylation (% of highest signal) (ABL1) | Relative phosphorylation (% of highest signal) (FES^WT) | Relative phosphorylation (% of highest signal) (LYN) | Relative phosphorylation (% of highest signal) (SYK) | further results
C=C1[C@@H](C)[C@H]2[C@H](Cc3ccccc3)NC(=O)[C@]23[C@H](OC(C)=O)/C=C/[C@@](C)(O)C(=O)[C@@H](C)C/C=C/[C@H]3[C@@H]1O [Cytochalasin D] | – | – | – | – | – | – | Phagocytic index ([1]; Figure 7i, replicates): 55.7493 and 57.2763 and 70.3881 and 51.4867 and 48.2922; Phagocytic index ([1]; MOI 0, Sup. Fig. 15d): 8.168 and 11.9502 and 9.328; Phagocytic index ([1]; MOI 5, Sup. Fig. 15d): 77.8958 and 83.9457 and 75.261; Phagocytic index ([1]; MOI 10, Sup. Fig. 15d): 109.345 and 104.624 and 85.7245; Phagocytic index ([1]; MOI 30, Sup. Fig. 15d): 212.699 and 198.296 and 185.432; Phagocytic index ([1]; MOI 50, Sup. Fig. 15d): 255.429 and 327.443 and 225.712; GFP-positive cells (%) ([1]; infection time 0 min): 14.1178% and 22.6106% and 27.9257%; Mean GFP intensity (RFU) ([1]; infection time 0 min): 245.785 RFU and 271.934 RFU and 267.216 RFU; GFP-positive cells (%) ([1]; infection time 15 min): 27.3639% and 36.225% and 38.7869%; Mean GFP intensity (RFU) ([1]; infection time 15 min): 283.565 RFU and 293.305 RFU and 282.675 RFU; Phagocytic index ([1]; infection time 15 min, Sup. Fig. 15c): 77.5947 and 106.25 and 109.641; GFP-positive cells (%) ([1]; infection time 30 min): 33.857% and 41.6734% and 39.0238%; Mean GFP intensity (RFU) ([1]; infection time 30 min): 270.952 RFU and 276.074 RFU and 268.61 RFU; Phagocytic index ([1]; infection time 30 min, Sup. Fig. 15c): 91.7362 and 115.049 and 104.822; GFP-positive cells (%) ([1]; infection time 60 min): 50.1058% and 58.9504% and 42.1365%; Mean GFP intensity (RFU) ([1]; infection time 60 min): 234.066 RFU and 238.429 RFU and 237.207 RFU; Phagocytic index ([1]; infection time 60 min, Sup. Fig. 15c): 117.281 and 140.555 and 99.951
AMPE_5_17 (EREGSKRYCIQTK; UniProt Q07075 5-17, looked up, fragment) | -0.745 % of highest signal | -1.5 % of highest signal | -0.436 % of highest signal | -0.1 % of highest signal | 0.114 % of highest signal | -1.8 % of highest signal | –
ART_004_EAIYAAPFAKKKXC | 17.0 % of highest signal | 8.3 % of highest signal | 100.0 % of highest signal | 5.0 % of highest signal | 2.6 % of highest signal | 3.2 % of highest signal | –
DDR1_506_518 (LLLSNPAYRLLLA; UniProt Q08345 506-518, looked up, fragment) | -1.7 % of highest signal | -6.2 % of highest signal | -1.4 % of highest signal | -0.4 % of highest signal | -1.0 % of highest signal | -3.9 % of highest signal | –
EFS_246_258_Y253F (GGTDEGIFDVPLL; UniProt O43281 246-258, looked up, fragment Y253F) | -0.6 % of highest signal | -4.8 % of highest signal | -0.5 % of highest signal | -0.634 % of highest signal | -0.264 % of highest signal | -1.2 % of highest signal | –
EPHA2_581_593 (QLKPLKTYVDPHT; UniProt P29317 581-593, looked up, fragment) | -0.569 % of highest signal | -3.2 % of highest signal | -0.273 % of highest signal | -0.0404 % of highest signal | -0.186 % of highest signal | -1.0 % of highest signal | –
EPHA4_921_933 (QAIKMDRYKDNFT; UniProt P54764 921-933, looked up, fragment) | -0.535 % of highest signal | -1.7 % of highest signal | -0.327 % of highest signal | -0.348 % of highest signal | -0.126 % of highest signal | -0.4 % of highest signal | –
EPOR_361_373 (SEHAQDTYLVLDK; UniProt P19235 361-373, looked up, fragment) | 2.0 % of highest signal | 2.0 % of highest signal | 0.0544 % of highest signal | 3.3 % of highest signal | 1.2 % of highest signal | 12.7 % of highest signal | –
MBP_259_271 (FGYGGRASDYKSA; UniProt P02686 259-271, looked up, fragment) | -0.0622 % of highest signal | 0.634 % of highest signal | -0.0479 % of highest signal | -0.152 % of highest signal | -0.152 % of highest signal | 0.9 % of highest signal | –
MBP_263_275 (GRASDYKSAHKGF; UniProt P02686 263-275, looked up, fragment) | -0.5 % of highest signal | -0.9 % of highest signal | -0.13 % of highest signal | -0.25 % of highest signal | -0.172 % of highest signal | -0.355 % of highest signal | –
MK01_198_210 (IMLNSKGYTKSID; UniProt P28482 198-210, looked up, fragment) | -0.8 % of highest signal | -3.8 % of highest signal | -0.5 % of highest signal | -0.6 % of highest signal | -0.184 % of highest signal | -1.2 % of highest signal | –
NPT2A_501_513 (AKALGKRTAKYRW; UniProt Q06495 501-513, looked up, fragment) | -0.4 % of highest signal | -2.1 % of highest signal | -0.2 % of highest signal | 0.553 % of highest signal | -0.318 % of highest signal | -0.846 % of highest signal | –
